Drawing on patent US20250339569A1 (3B PHARMACEUTICALS, published 2025), this text covers pIC50 and pKD for eleven molecules.

One may read the pKD as the negative decadic logarithm of the KD, by convention in mol/L. A lower pKD goes with a high KD.

B1: 3BP-4503: DOTA-{Glu-[Cys(3MeBn)-Glu-pro-Asp-Af3(Cpsu)-Leu-Thr-Trp-Dap}-Cys]-NH2 (peptide)
peptide: {DOTA}-ECE[dP]D[Phe(3-NHCO(CH2)3SO2NH2)]LTW[Dap]C-NH2
modifications: lactam 1-10; linker 2-11 via mXylylene
notes: Bicyclic peptide with uncomplexed DOTA; also called DPI-4503
B2: 3BP-3583: DOTA-APAc-Val-Tyr-[Cys(3MeBn)-Glu-pro-Asp-Trp-Leu-Thr-Trp-Ser-Cys]-NH2 (peptide)
peptide: {DOTA-APAc″}-VYCE[dP]DWLTWSC-NH2
modifications: linker 3-12 via mXylylene
notes: Cyclic peptide with uncomplexed DOTA; also called DPI-3583
B3: 3BP-4174: DOTA-APAc-Val-{Asp-[Cys(3MeBn)-Glu-pro-Asp-Trp-Leu-Thr-Trp-Dap}-Cys]-NH2 (peptide)
peptide: {DOTA-APAc″}-VDCE[dP]DWLTW[Dap]C-NH2
modifications: lactam 2-11; linker 3-12 via mXylylene
notes: Bicyclic peptide with uncomplexed DOTA; also called DPI-4174
B4: 3BP-4555: LuDOTA-PPAc-Gln-[Cys(3MeBn)-Glu-pro-Asp-Af3(Cpsu)-Leu-Thr-Trp-Ser-Cys]-NH2 (peptide)
peptide: QCE[dP]D[Phe(3-NHCO(CH2)3SO2NH2)]LTWSC-NH2
modifications: linker 2-11 via mXylylene; not fully specified (N-terminus); printed as LuDOTA-PPAc-Gln-[Cys(3MeBn)-Glu-pro-Asp-Af3(Cpsu)-Leu-Thr-Trp-Ser-Cys]-NH2; also: lutetium complexed in DOTA
notes: also called natLu-DPI-4452
B5: 3BP-4452: DOTA-PPAc-Gln-[Cys(3MeBn)-Glu-pro-Asp-Af3(Cpsu)-Leu-Thr-Trp-Ser-Cys]-NH2 (peptide)
peptide: {DOTA-Acetyl(2-(piperazin-1-yl))}-QCE[dP]D[Phe(3-NHCO(CH2)3SO2NH2)]LTWSC-NH2
modifications: linker 2-11 via 3MeBn
notes: Cyclic peptide with uncomplexed DOTA; also called DPI-4452
B6: 3BP-4501: DOTA-Gln-[Cys(3MeBn)-Glu-pro-Asp-Aph(SaPr)-Leu-Thr-Trp-Ser-Cys]-NH2 (peptide)
peptide: {DOTA}-QCE[dP]D[Aph(SaPr)]LTWSC-NH2
modifications: linker 2-11 via mXylylene
SMILES: CC(C)C[C@@H]1NC(=O)[C@H](Cc2ccc(NC(=O)CCS(N)(=O)=O)cc2)NC(=O)[C@H](CC(=O)O)NC(=O)[C@H]2CCCN2C(=O)[C@H](CCC(=O)O)NC(=O)[C@@H](NC(=O)[C@H](CCC(N)=O)NC(=O)CN2CCN(CC(=O)O)CCN(CC(=O)O)CCN(CC(=O)O)CC2)CSCc2cccc(c2)CSC[C@@H](C(N)=O)NC(=O)[C@H](CO)NC(=O)[C@H](Cc2c[nH]c3ccccc23)NC(=O)[C@H]([C@@H](C)O)NC1=O
notes: Cyclic peptide with uncomplexed DOTA; also called DPI-4501

Starred links: 1 amine or outer side, 2 acyl side, 3 side chain; linkers in the order of their positions; H or OH if unused. Positions of bridges follow the written chain, without caps; N, C: chain ends. Non-standard residues stand in square brackets, D forms with d. Primed or numbered codes have the meaning given here. No end group written: not given here. *: point of attachment. Af3(Aytr) = 3-amino-L-phenylalanine, ring amine acylated with triazol-1-yl acetic acid bearing a 4-hydroxamic acid group, O=C(Cn1cc(C(=O)NO)nn1)Nc1cccc(C[C@H](N[*:1])C(=O)[*:2])c1; Aph(Hspy) = 4-amino-L-phenylalanine, ring amine acylated with 4-sulfamoyl-1H-pyrrole-2-carboxylic acid, NS(=O)(=O)c1c[nH]c(C(=O)Nc2ccc(C[C@H](N[*:1])C(=O)[*:2])cc2)c1; Aph(MSAc) = 4-aminophenylalanine acylated on the ring amine with 2-methanesulfonylacetic acid, CS(=O)(=O)CC(=O)Nc1ccc(C[C@H](N[*:1])C(=O)[*:2])cc1; Aph(SaPr) = 4-amino-L-phenylalanine, ring amine acylated by 3-sulfamoylpropanoic acid, NS(=O)(=O)CCC(=O)Nc1ccc(C[C@H](N[*:1])C(=O)[*:2])cc1; 3MeBn = 3-methylbenzylidene (m-xylene unit) bridging two Cys S atoms via thioethers, from alpha,alpha'-dibromo-m-xylene; Af3(Cshx) = 3-amino-L-phenylalanine, ring amine acylated with 4-sulfamoylcyclohexane-1-carboxylic acid; DOTA(Lu) = O=C1CN2CCN3CCN(CC(=O)*)CCN(CC2)CC(=O)[O][Lu]([O]1)[O]C(=O)C3; Phe(3-NHCO(CH2)3SO2NH2) = N[C@@H](Cc1cccc(NC(=O)CCCS(N)(=O)=O)c1)C(=O)O; APAc″ = 2-(4-(amino)piperidin-1-yl)acetic acid, NC1CCN(CC(=O)*)CC1; DOTA = O=C(O)CN1CCN(CC(=O)O)CCN(CC(=O)*)CCN(CC(=O)O)CC1; Acetyl(2-(piperazin-1-yl)) = O=C(CN1CCNCC1)*; PPAc = 4-carboxymethyl piperazine linker; mXylylene = c1cc(C[*:1])cc(C[*:2])c1; Dap = NC[C@H](N)C(=O)O Some results are limits rather than exact numbers.

T2 sequence (O43570 25-301 limits assumed): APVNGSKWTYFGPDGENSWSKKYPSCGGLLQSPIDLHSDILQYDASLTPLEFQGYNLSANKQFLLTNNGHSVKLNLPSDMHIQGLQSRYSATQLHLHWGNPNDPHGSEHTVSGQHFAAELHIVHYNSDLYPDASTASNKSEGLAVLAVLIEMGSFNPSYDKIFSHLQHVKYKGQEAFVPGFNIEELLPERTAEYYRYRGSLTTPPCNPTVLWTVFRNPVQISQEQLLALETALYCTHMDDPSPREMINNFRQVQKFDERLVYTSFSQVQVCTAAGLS

In the first assay the target is human carbonic anhydrase 9 (CAIX) (human, UniProt Q16790 38-459). Briefly: FACS competition on HT-29 cells, competitor tracer 3BP-4149; category C = pIC50 6.1-7.0. As for the experimental part:
(§1) CAIX-expressing human HT-29 colorectal cancer cells (DSMZ, RRID: CVCL_0320) were cultured in McCoys's 5A modified medium (Biochrom, #F1015) including 10% fetal calf serum (FCS), 2 mM L-glutamine, 100 U/ml penicillin and 100 μg/mL streptomycin. Cells were detached with Accutase (Biolegend, #423201) and washed in FACS buffer (PBS including 1% FCS). Cells were diluted in FACS buffer to a final concentration of 500.000 cells per ml. 200 μL of the cell suspension were transferred to a u-shaped non-binding 96-well plate (Greiner) and cells were washed in ice-cold FACS buffer.
(§2) When biotinylated compounds were used an additional incubation step with 1 μg/mL APC-Streptavidin (Miltenyi; #130-106-791) in 50 μL FACS buffer for 30 minutes on ice was performed.
(§3) Cells were washed twice with ice-cold FACS buffer and analyzed in an Attune NxT flow cytometer (Thermo Fisher). Median fluorescence intensities (MFI) of the APC/Cy5-channel were calculated by Attune NxT software.
In the case of {DOTA-APAc″}-VYCE[dP]D[Aph(MSAc)]LTWSC-NH2 (linker 3-12 via mXylylene) [3BP-4360], the pIC50 lay within 6.1 to 7 pic50.

A further assay addresses human carbonic anhydrase IX (CAIX) (human, UniProt Q16790 38-459). Nature of the assay: FACS competition, HT-29 cells, tracer 3BP-2776; pIC50 category C: 6.1-7.0. As for the experimental part:
as §1, §2, §3
Molecule {DOTA-PPAc}-QCE[dP]D[Af3(Aytr)]LTWSC-NH2 (linker 2-11 via mXylylene) [3BP-4847] had a pIC50 of 6.1 to 7 pic50.
On the same count and under the same terms, to {DOTA-PPAc}-QCE[dP]D[Aph(Hspy)]LTWSC-NH2 (linker 2-11 via mXylylene) [3BP-4814] belongs 6.1 to 7 pic50; to {DOTA-PPAc}-QCE[dP]D[Af3(Cshx)]LTWSC-NH2 (linker 2-11 via mXylylene) [3BP-4787], 6.1 to 7 pic50.

The next assay deals with T1, human carbonic anhydrase 4 (CAIV), biotinylated (Sino Biological Cat #10472-H08H) (human, UniProt P22748 19-283, biotinylated (sites not given)).
T1 construct: Bought protein, biotinylated and captured with the Biotin CAPture Kit; also called hCAIV-bio; carbonic anhydrase IV
T1 sequence (P22748 19-283 limits assumed): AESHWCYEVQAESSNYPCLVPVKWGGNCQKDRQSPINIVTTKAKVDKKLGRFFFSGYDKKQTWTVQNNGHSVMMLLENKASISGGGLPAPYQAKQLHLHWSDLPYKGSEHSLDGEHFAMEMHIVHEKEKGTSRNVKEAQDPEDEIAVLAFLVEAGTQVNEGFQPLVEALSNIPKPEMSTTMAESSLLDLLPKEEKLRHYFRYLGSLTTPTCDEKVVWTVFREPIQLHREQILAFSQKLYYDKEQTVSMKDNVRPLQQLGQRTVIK
Briefly: SPR (Biacore T200), biotinylated CAIV captured with Biotin CAPture Kit; limit of the category in which no binding is told. Background: Surface plasmon resonance follows binding to a sensor surface in real time, without labels.
Consider {DOTA(Lu)}-QCE[dP]D[Aph(SaPr)]LTWSC-NH2 (linker 2-11 via mXylylene; also: DOTA complexing non-radioactive lutetium, also called natLu-3BP-4501) [3BP-4581: LuDOTA-Gln-[Cys(3MeBn)-Glu-pro-Asp-Aph(SaPr)-Leu-Thr-Trp-Ser-Cys]-NH2], for which the negative logarithm of the KD (pKD) is less than 6.
Same read-out and setting: to B1 belongs less than 6; to B2, less than 6; to B3, less than 6.
Take B4: the negative-log KD (pKD) is less than 6.
With B5, the pKD is less than 6.
On the same count and under the same terms, to B6 belongs less than 6.

Another assay concerns the target T2, human carbonic anhydrase 12 (CAXII), biotinylated (Sino Biological Cat #10617-H08H) (human, UniProt O43570 25-301, biotinylated (sites not given)).
T2 construct: Bought protein, biotinylated and captured with the Biotin CAPture Kit; also called hCAXII-bio; carbonic anhydrase XII
Nature of the assay: SPR (Biacore T200), biotinylated CAXII captured with Biotin CAPture Kit; limit of the category in which no binding is told.
Consider {DOTA(Lu)}-QCE[dP]D[Aph(SaPr)]LTWSC-NH2 (linker 2-11 via mXylylene; also: DOTA complexing non-radioactive lutetium, also called natLu-3BP-4501) [3BP-4581: LuDOTA-Gln-[Cys(3MeBn)-Glu-pro-Asp-Aph(SaPr)-Leu-Thr-Trp-Ser-Cys]-NH2], for which the pKD is less than 6.
B1 had a pKD of less than 6.
Still for that read-out and setting: with B2 the figure was less than 6; with B3, less than 6.
Molecule B4 returned a pKD of less than 6.
The same measure, in the same setting: with B5 the figure was less than 6; with B6, less than 6.

In a further assay the target is T3, human carbonic anhydrase 14 (CAXIV), biotinylated (Sino Biological Cat #10458-H08H) (human, UniProt Q9ULX7 16-290, biotinylated (sites not given)).
T3 construct: Bought protein, biotinylated and captured with the Biotin CAPture Kit; also called hCAXIV-bio; carbonic anhydrase XIV
T3 sequence (Q9ULX7 16-290 limits assumed): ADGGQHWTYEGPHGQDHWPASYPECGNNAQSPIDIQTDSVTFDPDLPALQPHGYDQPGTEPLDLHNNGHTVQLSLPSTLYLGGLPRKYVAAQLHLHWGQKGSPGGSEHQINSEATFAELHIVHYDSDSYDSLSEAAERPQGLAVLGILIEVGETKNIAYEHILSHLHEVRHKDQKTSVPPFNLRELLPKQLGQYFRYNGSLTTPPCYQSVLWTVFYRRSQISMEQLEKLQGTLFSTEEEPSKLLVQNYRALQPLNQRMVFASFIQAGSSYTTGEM
Briefly: SPR (Biacore T200), biotinylated CAXIV captured with Biotin CAPture Kit; limit of the category in which no binding is told.
The molecule {DOTA(Lu)}-QCE[dP]D[Aph(SaPr)]LTWSC-NH2 (linker 2-11 via mXylylene; also: DOTA complexing non-radioactive lutetium, also called natLu-3BP-4501) [3BP-4581: LuDOTA-Gln-[Cys(3MeBn)-Glu-pro-Asp-Aph(SaPr)-Leu-Thr-Trp-Ser-Cys]-NH2] returned a negative-log KD (pKD) of less than 6.
The same measure, in the same setting: to B1 belongs less than 6.
On the same count and under the same terms, to B2 belongs less than 6.
Still for that read-out and setting: to B3 belongs less than 6.
Molecule B4 registered a pKD of less than 6.
Still for that read-out and setting: with B5 the figure was less than 6; with B6, less than 6.
